This is an account of results in patent US20140294898A1 (published 2014).

In test [1] the target is human PD-L1 on cells (human, UniProt Q9NZQ7 19-290). Kind of test: cell-based or functional assay.
Target sequence in this assay (Q9NZQ7 19-290): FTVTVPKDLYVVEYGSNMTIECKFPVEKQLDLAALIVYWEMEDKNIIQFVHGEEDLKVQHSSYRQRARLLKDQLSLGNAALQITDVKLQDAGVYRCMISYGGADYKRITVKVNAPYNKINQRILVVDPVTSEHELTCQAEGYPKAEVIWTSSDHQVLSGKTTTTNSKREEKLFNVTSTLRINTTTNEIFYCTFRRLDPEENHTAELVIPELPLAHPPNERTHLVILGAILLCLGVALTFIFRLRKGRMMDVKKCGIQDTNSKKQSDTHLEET
Test [2] addresses T1, human PD-L1 on cells (human, UniProt Q9NZQ7 19-290). Kind of test: cell-based or functional assay. The source holds these as a separate data set.
T1 sequence (Q9NZQ7 19-290): as above
Test [3] has as its target T2, hPDL1(19-239)-TVMV-His (human, UniProt Q9NZQ7 19-239).
T2 construct: The text says amino acids 18-239, the construct name says 19-239; The entry includes the TVMV site and the His tag; also called PD-L1-His; PD-L1-TVMV-His
Kind of test: HTRF competition of PD-1-Ig binding to PD-L1-His. Background: Time-resolved FRET reads energy transfer from a long-lived donor to a nearby acceptor.
T2 sequence (Q9NZQ7 other isoform, or with tags, fused parts or gaps limits assumed): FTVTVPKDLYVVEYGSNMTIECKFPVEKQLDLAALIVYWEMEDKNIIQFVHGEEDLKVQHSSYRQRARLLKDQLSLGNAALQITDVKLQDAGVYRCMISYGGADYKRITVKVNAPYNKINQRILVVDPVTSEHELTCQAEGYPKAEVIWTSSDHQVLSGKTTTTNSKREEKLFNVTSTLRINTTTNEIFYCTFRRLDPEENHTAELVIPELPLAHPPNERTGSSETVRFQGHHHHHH

Test [4] has as its target T1, human PD-L1 on cells. Kind of test: cell binding assay (CBA): PE-labelled PD-1-Ig on cells over-expressing human PD-L1.
Test [5] has as its target T3, hPDL1(19-239)-TVMV-His (human, UniProt Q9NZQ7 19-239).
T3 construct: The construct name says 19-239, the running text says amino acids 18-239; Expressed in HEK293T cells; also called PD-L1-His; PD-L1-TVMV-His
Kind of test: HTRF competition, PD-1-Ig (20 nM) binding to human PD-L1-His (10 nM).
T3 sequence (Q9NZQ7 other isoform, or with tags, fused parts or gaps limits assumed): as above

Test [6] concerns the target T4, hPDL1(19-239)-TVMV-His (human, UniProt Q9NZQ7 19-239).
T4 construct: The text says amino acids 18-239, the construct name says 19-239; also called PD-L1-His; PD-L1-TVMV-His
Kind of test: HTRF competition, inhibitor titrated against PD-1-Ig binding to PD-L1-His. The method, then: (§1) All binding studies were performed in an HTRF assay buffer consisting of dPBS supplemented with 0.1% (w/v) bovine serum albumin and 0.05% (v/v) Tween-20. […] PD-L1 fusion proteins from either human, cynomologous macaques, or mouse were used. HTRF detection was achieved using europium crypate-labeled anti-Ig monoclonal antibody (1 nM final) and allophycocyanin (APC) labeled anti-His monoclonal antibody (20 nM final). Antibodies were diluted in HTRF detection buffer and 5 μl was dispensed on top of binding reaction. The reaction was allowed to equilibrate for 30 minutes and signal (665 nm/620 nm ratio) was obtained using an EnVision fluorometer. […]
T4 sequence (Q9NZQ7 other isoform, or with tags, fused parts or gaps limits assumed): as above

Test [7] concerns the target T4, hPDL1(19-239)-TVMV-His. The description is as above. On the procedure: as §1
HTRF Experiments were performed essentially as outlined supra. Variant macrocyclic peptides were created as outlined herein.
The source holds these as a separate data set.

Starred links: 1 amine or outer side, 2 acyl side, 3 side chain; linkers in the order of their positions; H or OH if unused. Positions of bridges follow the written chain, without caps; N, C: chain ends. Non-standard residues stand in square brackets, D forms with d. Primed or numbered codes have the meaning given here. trans‑Pro(4-(4-fluorobenzyl)) = trans-4-(4-fluorobenzyl)-L-proline, O=C([C@@H]1C[C@@H](Cc2ccc(F)cc2)CN1[*:1])[*:2]; Pro(cis-4-Ph) = O=C(O)[C@@H]1C[C@H](c2ccccc2)CN1; NMeF = CN[C@@H](Cc1ccccc1)C(=O)O; PEG12′ = C-terminal PEG12 spacer; NMeNle = CCCC[C@H](NC)C(=O)O; NMeA = CN[C@@H](C)C(=O)O; Dab = NCC[C@H](N)C(=O)O; Sar = CNCC(=O)O

B1: Compound No. 2 (peptide)
peptide: {CH2CO}-F[NMeA]NPHHSWRW[NMeNle][NMeNle]LCG-NH2
modifications: thioether N-14
SMILES: CCCC[C@H]1C(=O)N(C)[C@@H](CCCC)C(=O)N[C@@H](CC(C)C)C(=O)N[C@H](C(=O)NCC(N)=O)CSCC(=O)N[C@@H](Cc2ccccc2)C(=O)N(C)[C@@H](C)C(=O)N[C@@H](CC(N)=O)C(=O)N2CCC[C@H]2C(=O)N[C@@H](Cc2c[nH]cn2)C(=O)N[C@@H](Cc2c[nH]cn2)C(=O)N[C@@H](CO)C(=O)N[C@@H](Cc2c[nH]c3ccccc23)C(=O)N[C@@H](CCCNC(=N)N)C(=O)N[C@@H](Cc2c[nH]c3ccccc23)C(=O)N1C
As to B1, the “IFNγ secretion by CMV-specific T cells (ELISA), EC50” value with human PD-L1 on cells [1] turned out to be 400 nM.

B2: Example 13011 (peptide)
peptide: {CH2CO}-Y[NMeA]NPHE[trans‑Pro(4-(4-fluorobenzyl))]W[Dab]W[NMeNle][NMeNle][Dab]CG-NH2
modifications: thioether N-14
SMILES: CCCC[C@H]1C(=O)N(C)[C@@H](CCCC)C(=O)N[C@@H](CCN)C(=O)N[C@H](C(=O)NCC(N)=O)CSCC(=O)N[C@@H](Cc2ccc(O)cc2)C(=O)N(C)[C@@H](C)C(=O)N[C@@H](CC(N)=O)C(=O)N2CCC[C@H]2C(=O)N[C@@H](Cc2c[nH]cn2)C(=O)N[C@@H](CCC(=O)O)C(=O)N2C[C@H](Cc3ccc(F)cc3)C[C@H]2C(=O)N[C@@H](Cc2c[nH]c3ccccc23)C(=O)N[C@@H](CCN)C(=O)N[C@@H](Cc2c[nH]c3ccccc23)C(=O)N1C
notes: X marks Dab and Nle
With B2, the “CMV Recall EC50; IFNγ secretion by CMV-specific T cells” value with human PD-L1 on cells [2] is 38.4 nM. The IC50 (in general, the concentration that gives 50% inhibition) was found to be 9.87 nM in the test with hPDL1(19-239)-TVMV-His [3] and 2.69 nM with human PD-L1 on cells [4]. As to {CH2CO}-FLIVIRDRVFRCG-NH2 (thioether N-12), the “IFNγ secretion by CMV-specific T cells (ELISA), EC50” value in the test with human PD-L1 on cells [1] was above 10000 nM. {CH2CO}-F[NMeA]NPHL[Sar]WSW[NMeNle][NMeNle]RCG-{PEG12′-NH2} (thioether N-14) [Compound No. 116] gave a half-maximal inhibitory concentration (IC50) with hPDL1(19-239)-TVMV-His [5] of 21 nM.

B3: Compound No. 99 (peptide)
peptide: {CH2CO}-FLIVIRDRVFRCG-NH2
modifications: thioether N-12
notes: Macrocyclic peptide; parent of the Formula III series
On to B3, for which the IC50 with hPDL1(19-239)-TVMV-His [6] and in the test with hPDL1(19-239)-TVMV-His [7] was 153 nM in each case.

B4: Compound No. 111 (peptide)
peptide: FLIVIRDRFFRCG
HELM: PEPTIDE1{[O=C(C[*:3])[*:2]].F.L.I.V.I.R.D.R.F.F.R.C.G.[am]}$PEPTIDE1,PEPTIDE1,1:R3-13:R3$$$V2.0
SMILES: CC[C@H](C)[C@@H]1NC(=O)[C@H](CC(C)C)NC(=O)[C@H](Cc2ccccc2)NC(=O)CSC[C@@H](C(=O)NCC(N)=O)NC(=O)[C@H](CCCNC(=N)N)NC(=O)[C@H](Cc2ccccc2)NC(=O)[C@H](Cc2ccccc2)NC(=O)[C@H](CCCNC(=N)N)NC(=O)[C@H](CC(=O)O)NC(=O)[C@H](CCCNC(=N)N)NC(=O)[C@H]([C@@H](C)CC)NC(=O)[C@H](C(C)C)NC1=O
notes: Macrocyclic variant of Compound No. 99
B4 registered an IC50 with hPDL1(19-239)-TVMV-His [7] of 540 nM.

B5: Example 13006 (peptide)
peptide: {CH2CO}-Y[NMeA]DPHK[Pro(cis-4-Ph)]WKW[NMeNle][NMeNle]ECG-NH2
modifications: thioether N-14
SMILES: CCCC[C@H]1C(=O)N(C)[C@@H](CCCC)C(=O)N[C@@H](CCC(=O)O)C(=O)N[C@H](C(=O)NCC(N)=O)CSCC(=O)N[C@@H](Cc2ccc(O)cc2)C(=O)N(C)[C@@H](C)C(=O)N[C@@H](CC(=O)O)C(=O)N2CCC[C@H]2C(=O)N[C@@H](Cc2c[nH]cn2)C(=O)N[C@@H](CCCCN)C(=O)N2C[C@@H](c3ccccc3)C[C@H]2C(=O)N[C@@H](Cc2c[nH]c3ccccc23)C(=O)N[C@@H](CCCCN)C(=O)N[C@@H](Cc2c[nH]c3ccccc23)C(=O)N1C
notes: X marks Nle
B5: the “CMV Recall EC50; IFNγ secretion by CMV-specific T cells” value with human PD-L1 on cells [2] was found to be 27.2 nM. In addition, the values for the IC50 with hPDL1(19-239)-TVMV-His [3] and with human PD-L1 on cells [4] were 4.11 nM and 1.47 nM, respectively.

B6: Compound No. 71 (peptide)
peptide: FFXGDVFYGWYLCG
HELM: PEPTIDE1{[O=C(C[*:3])[*:2]].F.[meF].[CCCC[C@@H](C(=O)[*:2])N(C)[*:1]].[Sar].D.V.[meF].Y.[Sar].W.Y.L.C.G.[am]}$PEPTIDE1,PEPTIDE1,1:R3-14:R3$$$V2.0
SMILES: CCCC[C@H]1C(=O)N(C)CC(=O)N[C@@H](CC(=O)O)C(=O)N[C@@H](C(C)C)C(=O)N(C)[C@@H](Cc2ccccc2)C(=O)N[C@@H](Cc2ccc(O)cc2)C(=O)N(C)CC(=O)N[C@@H](Cc2c[nH]c3ccccc23)C(=O)N[C@@H](Cc2ccc(O)cc2)C(=O)N[C@@H](CC(C)C)C(=O)N[C@H](C(=O)NCC(N)=O)CSCC(=O)N[C@@H](Cc2ccccc2)C(=O)N(C)[C@@H](Cc2ccccc2)C(=O)N1C
notes: Macrocyclic peptide; X stands for norleucine
B6 came in with a concentration for half-maximal inhibition (IC50) with hPDL1(19-239)-TVMV-His [6] of 7 nM. With {CH2CO}-F[NMeF][NMeNle][Sar]DV[NMeF]Y[Sar]WYLCG-{PEG12′-NH2} (thioether N-13) [Compound No. 118], the concentration for half-maximal inhibition (IC50) with hPDL1(19-239)-TVMV-His [5] worked out at 3 nM. In other words, the single-digit nanomolar range.

B7: Compound No. 3 (peptide)
peptide: {CH2CO}-F[NMeA]NPHRSWRW[NMeNle][NMeNle]LCG-NH2
modifications: thioether N-14
SMILES: CCCC[C@H]1C(=O)N(C)[C@@H](CCCC)C(=O)N[C@@H](CC(C)C)C(=O)N[C@H](C(=O)NCC(N)=O)CSCC(=O)N[C@@H](Cc2ccccc2)C(=O)N(C)[C@@H](C)C(=O)N[C@@H](CC(N)=O)C(=O)N2CCC[C@H]2C(=O)N[C@@H](Cc2c[nH]cn2)C(=O)N[C@@H](CCCNC(=N)N)C(=O)N[C@@H](CO)C(=O)N[C@@H](Cc2c[nH]c3ccccc23)C(=O)N[C@@H](CCCNC(=N)N)C(=O)N[C@@H](Cc2c[nH]c3ccccc23)C(=O)N1C
notes: as for B6
In the test with hPDL1(19-239)-TVMV-His [6], B7 showed an IC50 of 13 nM.

B8: Compound No. 4 (peptide)
peptide: {CH2CO}-F[NMeA]NPLRSWRW[NMeNle][NMeNle]LCG-NH2
modifications: thioether N-14
SMILES: CCCC[C@H]1C(=O)N(C)[C@@H](CCCC)C(=O)N[C@@H](CC(C)C)C(=O)N[C@H](C(=O)NCC(N)=O)CSCC(=O)N[C@@H](Cc2ccccc2)C(=O)N(C)[C@@H](C)C(=O)N[C@@H](CC(N)=O)C(=O)N2CCC[C@H]2C(=O)N[C@@H](CC(C)C)C(=O)N[C@@H](CCCNC(=N)N)C(=O)N[C@@H](CO)C(=O)N[C@@H](Cc2c[nH]c3ccccc23)C(=O)N[C@@H](CCCNC(=N)N)C(=O)N[C@@H](Cc2c[nH]c3ccccc23)C(=O)N1C
notes: as for B6
As for B8, the IC50 in the test with hPDL1(19-239)-TVMV-His [6] is 15 nM.

In turn, {CH2CO}-F[NMeA]NPHHSWRW[NMeNle][NMeNle]LCG-{PEG12′-NH2} (thioether N-14) [Compound No. 117] registered a concentration for half-maximal inhibition (IC50) with hPDL1(19-239)-TVMV-His [5] of 21 nM.
